Experimental data published in IntAct's records for PubMed 29125462.

B1: RILP-like protein 2 (Homo sapiens), Q969X0 (parent)
chain: MEEPPVREEEEEEGEEDEERDEVGPEGALGKSPFQLTAEDVYDISYLLGRELMALGSDPRVTQLQFKVVRVLEMLEALVNEGSLALEELKMERDHLRKEVEGLRRQSPPASGEVNLGPNKMVVDLTDPNRPRFTLQELRDVLQERNKLKSQLLVVQEELQCYKSGLIPPREGPGGRREKDAVVTSAKNAGRNKEEKTIIKKLFFFRSGKQT
B2: RILP-like protein 1 (Homo sapiens), Q5EBL4 (parent)
chain: MEEERGSALAAESALEKNVAELTVMDVYDIASLVGHEFERVIDQHGCEAIARLMPKVVRVLEILEVLVSRHHVAPELDELRLELDRLRLERMDRIEKERKHQKELELVEDVWRGEAQDLLSQIAQLQEENKQLMTNLSHKDVNFSEEEFQKHEGMSERERQVMKKLKEVVDKQRDEIRAKDRELGLKNEDVEALQQQQTRLMKINHDLRHRVTVVEAQGKALIEQKVELEADLQTKEQEMGSLRAELGKLRERLQGEHSQNGEEEPETEPVGEESISDAEKVAMDLKDPNRPRFTLQELRDVLHERNELKSKVFLLQEELAYYKSEEMEEENRIPQPPPIAHPRTSPQPESGIKRLFSFFSRDKKRLANTQRNVHIQESFGQWANTHRDDGYTEQGQEALQHL

Variants of: B1
Conditions: with rab8a_human RAB8A

| Variant | effect of a mutation on the interaction |
| --- | --- |
| K149E | disrupting interaction strength |
| R130E | disrupting interaction strength |
| R132E | disrupting interaction strength |

Variants of: B2
Conditions: with rab8a_human RAB8A

| Variant | effect of a mutation on the interaction |
| --- | --- |
| K310E | disrupting interaction strength |
| R293E | disrupting interaction strength |
| R291E | disrupting interaction strength |
